Source: US20230235304
Where a chain is given by its changes, count along the chain named.

Assays:
Assay in all cases: cell_activity
Details in all cases: PAM 5'-GCTG-3'; HEK293T; averaged over AAVS1, VEGFA, EMX1 targets
[1] = test system: T1, CRISPR nuclease variant D509R D509R (synthetic construct)
T1 sequence: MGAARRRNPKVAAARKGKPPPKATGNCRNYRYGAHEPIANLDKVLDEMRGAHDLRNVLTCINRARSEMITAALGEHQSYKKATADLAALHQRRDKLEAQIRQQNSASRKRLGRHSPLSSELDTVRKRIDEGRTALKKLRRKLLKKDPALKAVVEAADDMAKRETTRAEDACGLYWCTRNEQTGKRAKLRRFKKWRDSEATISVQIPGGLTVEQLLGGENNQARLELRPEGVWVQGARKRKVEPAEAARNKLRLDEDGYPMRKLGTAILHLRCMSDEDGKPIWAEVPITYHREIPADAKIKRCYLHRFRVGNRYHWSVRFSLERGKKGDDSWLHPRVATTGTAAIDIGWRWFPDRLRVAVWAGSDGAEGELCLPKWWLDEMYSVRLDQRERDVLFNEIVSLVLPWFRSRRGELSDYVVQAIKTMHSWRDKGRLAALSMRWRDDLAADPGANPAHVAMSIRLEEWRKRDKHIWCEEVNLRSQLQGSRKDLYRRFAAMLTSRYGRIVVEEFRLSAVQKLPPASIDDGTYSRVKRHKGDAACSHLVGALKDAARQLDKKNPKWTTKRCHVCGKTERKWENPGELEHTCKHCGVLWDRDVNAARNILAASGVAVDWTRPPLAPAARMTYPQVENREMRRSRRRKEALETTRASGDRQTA

[2] = test system: T2, CRISPR nuclease variant I521R I521R (synthetic construct)
T2 sequence: T1 sequence with R509D, I521R

[3] = test system: T3, CRISPR nuclease variant K136G,N220R,M380R K136G,N220R,M380R (synthetic construct)
T3 sequence: T1 sequence with K136G, N220R, M380R, R509D

[4] = test system: T4, CRISPR nuclease variant L580G,L385G L580G,L385G (synthetic construct)
T4 sequence: T1 sequence with L385G, R509D, L580G

GGUCCCAUCGGAACGGGUUGUGGUUCCGACGGAGGGAUACAUUGGUGGGG / GGAGGGATACATTGGTGGGG / CCCCACCAATGTATCCCTCC [AAVS1 crRNA (Table 5) ; AAVS1 target (Table 5)]
binding signal (fold indels vs WT) [1]: 3.91 | binding signal (fold indels vs WT) [2]: 3.57 | binding signal (fold indels vs WT) [3]: 4.54 | binding signal (fold indels vs WT) [4]: 3.9
